{
  "source": "patent US20170015738A1",
  "binders": {"B1": {"name": "Antibody C10-2 (murine) (antibody, mouse IgG1, kappa, V domains shown)", "VH": "QVQLQQSDAELVKPGASVKISCKASGYTFTDRTIHWVKQRPEQGLEWIGYIYPGDGSTKYNENFKGKATLTADKSSSTAYMQLNSLTSEDSAVYFCARRGAMDYWGQGTSVTVSS", "VL": "DVQMIQSPSSLSASLGDIVTMTCQASQGTSINLNWFQQKPGKAPKLLIYGASNLEDGVPSRFSGSRYGTDFTLTISSLEDEDMATYFCLQHTYLPFTFGSGTKLEIKR"}, "B2": {"name": "4E4 antibody (antibody, from another filing, V domains shown)", "VH": "EVQLVESGGGLVQPGGSLKLSCAASGFNFNISAIHWVRQASGKGLEWVGRIRSKSHNYATLYAASLKGRFTLSRDDSRNTAYLQMSSLQTEDMAVYYCTVLSANYDTFDYWGQGTLVTVSS", "VL": "SYELTQPPSVSVSPGQTARISCFGDTLPKQYTYWYQQKPGQAPVLVIYKDTERPSGIPERFSGSSSGTTVTLTISGVQAEDEADYYCLSADNSATWVFGGGTKVTVL"}, "B3": {"name": "Antibody D1.2 (antibody, mouse IgG2b, kappa, V domains shown)", "VH": "QVQLQQSGAELVRPGASVTLSCKASGNTFTDYEIHWVKQTPVHGLEWIGAIDPETGNTAYNQKFKGKARLTADKSSSTAYMELRSLTSEDSAVYYCTRSRGFDYWGQGTTLTVSS", "VL": "DVMMTQTPLSLPVSLGDQASISCRSSQSLVHSNGNTYLHWHLQKPGQSPKFLIYKVSNRFSGVPDRFSGSGSGTDFTLKISRVEAEDLGVYFCSQSTHVPFTFGSGTKLEIKR"}},
  "key": {"[1]": {"biological_target": "hyper-phosphorylated P301L mutant human 4R0N tau from rTg4510 mouse brain (64 and 70 kDa species; P3 / brain extract) (human) (UniProt P10636)", "sequence (P10636 other isoform, or with tags, fused parts or gaps P301L P301L)": "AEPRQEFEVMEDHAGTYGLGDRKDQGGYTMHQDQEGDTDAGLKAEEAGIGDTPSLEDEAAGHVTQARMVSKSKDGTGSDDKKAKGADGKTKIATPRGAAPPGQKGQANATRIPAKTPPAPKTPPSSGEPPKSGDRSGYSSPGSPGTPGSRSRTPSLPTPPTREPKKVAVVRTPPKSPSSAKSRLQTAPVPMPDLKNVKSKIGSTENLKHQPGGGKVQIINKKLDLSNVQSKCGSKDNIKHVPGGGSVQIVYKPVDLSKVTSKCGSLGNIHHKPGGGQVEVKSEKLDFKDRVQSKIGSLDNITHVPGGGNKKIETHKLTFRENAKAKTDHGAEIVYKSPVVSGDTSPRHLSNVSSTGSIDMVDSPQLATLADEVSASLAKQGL", "assay": "cell-based or functional assay"}, "[2]": {"biological_target": "hyper-phosphorylated P301L mutant human 4R0N tau from rTg4510 mouse brain (64 and 70 kDa species; P3 / brain extract) (human) (UniProt P10636)", "assay": "MSD ELISA on immobilised P3; ratio of binding to Tg4510 over wt mouse material"}, "[3]": {"biological_target": "hyper-phosphorylated P301L mutant human 4R0N tau from rTg4510 mouse brain (64 and 70 kDa species; P3 / brain extract) (human) (UniProt P10636)", "assay": "immunodepletion of rTg4510 brain extracts; western blot quantification (FIG. 14)"}, "[4]": {"biological_target": "hyper-phosphorylated P301L mutant human 4R0N tau from rTg4510 mouse brain (64 and 70 kDa species; P3 / brain extract) (human) (UniProt P10636)", "assay": "immunodepletion of rTg4510 brain extract with antibody on Protein G Dynabeads; western blot"}, "[5]": {"biological_target": "hyper-phosphorylated P301L mutant human 4R0N tau from rTg4510 mouse brain (64 and 70 kDa species; P3 / brain extract) (human) (UniProt P10636)", "assay": "fluid phase MSD ELISA: antibody mixed with rTg4510 P3 in solution, capture on C10-2 coated plates"}, "[6]": {"biological_target": "aggregated tau in rTg4510 brain extract (Cisbio assay) (human) (UniProt P10636)", "sequence (P10636 other isoform, or with tags, fused parts or gaps)": "as the sequence (P10636 other isoform, or with tags, fused parts or gaps P301L P301L) above", "assay": "immunodepletion of rTg4510 brain extract with antibody on Protein G Dynabeads; Cisbio aggregation assay"}},
  "data": [
    {"binder": "B1", "values": [
      {"measurement": "prevention of insoluble tau in HEK293 cells seeded with immunodepleted rTg4510 homogenate (western blot)", "setting": "[1]", "value": 97, "unit": "%"},
      {"measurement": "prevention of tau aggregation in HEK293 cells seeded with immunodepleted rTg4510 homogenate (Cisbio assay)", "setting": "[1]", "value": 88, "unit": "%"},
      {"measurement": "TG/wt", "setting": "[2]", "value": 118, "unit": "fold"},
      {"measurement": "percent reduction of the 64 kDa band", "setting": "[3]", "value": 90, "unit": "%"},
      {"measurement": "percent removed by immunodepletion", "setting": "[4]", "value": 95, "unit": "%"},
      {"measurement": "IC50", "setting": "[5]", "value": 20, "unit": "nM"},
      {"measurement": "percent of tau aggregates removed", "setting": "[6]", "value": 99, "unit": "%"}
    ]},
    {"binder": "B2", "values": [
      {"measurement": "TG/wt", "setting": "[2]", "value": 1, "unit": "fold"}
    ]},
    {"binder": "B3", "values": [
      {"measurement": "percent reduction of the 64 kDa band", "setting": "[3]", "value": 90, "unit": "%"},
      {"measurement": "percent removed by immunodepletion", "setting": "[4]", "value": 95, "unit": "%"}
    ]}
  ]
}
